Assay [1] has as its target T1, DR4 (death receptor 4, a TRAIL receptor), endogenous (UniProt O00220 24-468).
T1 construct: Endogenous protein immunoprecipitated or blotted from lysates of human cell lines; also called endogenous DR4; DRs
Kind of assay: IP of DR4 from HeLa lysates, immunoblot for FADD. The text has this: DR4 and DR5 from HeLa and PA-1 cells respectively were immunoprecipitated and probed for known DISC components. […] Forty-eight-hour transduced HeLa cells and PA-1 cells were collected and lysed. Lysates were normalized for protein concentration, and DR4s/DR5s were immunoprecipitated using specific antibodies.
For orientation: In western blotting, separated proteins are transferred to a membrane and probed.

Assay [2] addresses T2, wild-type MADD (wtMADD), YFP-tagged, expressed in HEK293 or HeLa cells (Homo sapiens (Human), UniProt Q8WXG6 1-1647, phosphorylated in cells at S70, T173 and T1041 (recognized by anti-phospho S70, T173 and T1041 antibodies)).
T2 construct: Exogenous MADD detected with anti-YFP antibody; Order of MADD and YFP is uncertain; also called YFP-MADD; exogenous MADD; not shown: YFP tag
The assay is described as follows: co-IP from HeLa cells expressing MADD-YFP, western blot. The text has this: (§1) These proteins were separated by SDS-PAGE and subjected to western blot analysis to probe for DISC components.
(§2) Samples were lysed, and the lysates were normalized for protein concentration and pre-cleared. […] Complexes were subjected to immunoblotting (WB, Western blot).

The target in assay [3] is T2, wild-type MADD (wtMADD), YFP-tagged, …. Kind of assay: co-IP with anti-IG20 antibody from HeLa cells expressing MADD-YFP, western blot; also not seen in the reverse IP with anti-caspase-8.
Text: as §1, §2

B1: FADD, endogenous (other, UniProt Q13158 1-208, looked up)
chain: MDPFLVLLHSVSSSLSSSELTELKFLCLGRVGKRKLERVQSGLDLFSMLLEQNDLEPGHTELLRELLASLRRHDLLRRVDDFEAGAAAGAAPGEEDLCAAFNVICDNVGKDWRRLARQLKVSDTKIDSIEDRYPRNLTERVRESLRIWKNTEKENATVAHLVGALRSCQMNLVADLVQEVQQARDLQNRSGAMSPMSWNSDASTSEAS
Regarding B1, the values for the binding result in assay [1] and in assay [2] were “binds” and “no binding”, respectively.

B2: caspase-8 (pro-caspase-8, p55/53), endogenous (enzyme, UniProt Q14790 1-479, looked up)
chain: MDFSRNLYDIGEQLDSEDLASLKFLSLDYIPQRKQEPIKDALMLFQRLQEKRMLEESNLSFLKELLFRINRLDLLITYLNTRKEEMERELQTPGRAQISAYRVMLYQISEEVSRSELRSFKFLLQEEISKCKLDDDMNLLDIFIEMEKRVILGEGKLDILKRVCAQINKSLLKIINDYEEFSKERSSSLEGSPDEFSNGEELCGVMTISDSPREQDSESQTLDKVYQMKSKPRGYCLIINNHNFAKAREKVPKLHSIRDRNGTHLDAGALTTTFEELHFEIKPHDDCTVEQIYEILKIYQLMDHSNMDCFICCILSHGDKGIIYGTDGQEAPIYELTSQFTGLKCPSLAGKPKVFFIQACQGDNYQKGIPVETDSEEQPYLEMDLSSPQTRYIPDEADFLLGMATVNNCVSYRNPAEGTWYIQSLCQSLRERCPRGDDILTILTEVNYEVSNKDDKKNMGKQMPQPTFTLRKKLVFPSD
As to B2, in assay [3], the binding result is “no binding”.

(Values after US20090075929A1 (BOARD OF TRUSTEES OF THE UNIVERSITY OF ILLINOIS, published 2009).)
